Experiment in all cases: SPR
Test [1] deals with human CD1d loaded with α-GalCer, wild type (human) (UniProt P15813).
In test [2] the target is human CD1d Met87 to Ala mutant loaded with α-GalCer (human).
The target in test [3] is human CD1d Arg79 to Ala mutant loaded with α-GalCer (human).
Test [4] concerns the target human CD1d Val147 to Ala mutant loaded with α-GalCer (human).
For test [5], the target named is human CD1d Lys86 to Ala mutant loaded with α-GalCer (human).
Test [6] deals with human CD1d Gln150 to Ala mutant loaded with α-GalCer (human).
Test [7] concerns the target human CD1d loaded with α-GalCer, wild type (human) (UniProt P15813). The source holds these as a separate data set.
Test [8] has as its target mouse CD1d loaded with α-GalCer (mouse) (UniProt P11609).

Like-named read-outs stand apart in the source and are kept apart here.

UniProt P15813, sequence (P15813 20-301): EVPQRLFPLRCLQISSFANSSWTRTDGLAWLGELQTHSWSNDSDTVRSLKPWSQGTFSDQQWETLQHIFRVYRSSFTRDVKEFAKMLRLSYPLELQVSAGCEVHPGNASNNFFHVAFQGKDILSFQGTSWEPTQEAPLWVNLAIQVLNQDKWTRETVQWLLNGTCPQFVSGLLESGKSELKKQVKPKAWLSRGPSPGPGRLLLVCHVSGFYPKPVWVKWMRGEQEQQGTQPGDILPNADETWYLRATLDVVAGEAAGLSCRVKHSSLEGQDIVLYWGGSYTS
UniProt P11609, sequence (P11609 22-336): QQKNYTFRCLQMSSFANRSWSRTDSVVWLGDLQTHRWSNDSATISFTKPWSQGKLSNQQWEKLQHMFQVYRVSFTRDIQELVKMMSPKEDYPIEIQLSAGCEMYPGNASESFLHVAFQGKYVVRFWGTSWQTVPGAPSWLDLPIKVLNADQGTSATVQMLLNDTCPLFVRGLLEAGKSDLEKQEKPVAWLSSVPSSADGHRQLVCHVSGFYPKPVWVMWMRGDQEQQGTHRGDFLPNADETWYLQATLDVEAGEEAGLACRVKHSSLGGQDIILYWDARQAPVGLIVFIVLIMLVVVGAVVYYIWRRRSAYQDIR

On to human NKT TCR (NKT15), wild type, for which the Kd (usually the concentration at which binding is half-saturated) in test [1] worked out at 0.58 µM; in test [2], 7.9 µM; in test [3] it was 0.35 µM; in test [4] it was 3.6 µM; in test [5], 2.83 µM; in test [6], 2.5 µM. For the same substance, the Kd was 0.46 µM in test [7] and 0.94 µM in test [8].
The substance human NKT TCR (NKT15) Ser30αAla mutant showed a Kd in test [8] of 1.16 µM.
On the same count and under the same terms, in the case of “human NKT TCR (NKT15) Glu56β to Ala mutant” it was 0.72 µM.
As to human NKT TCR (NKT15) Tyr103βAla mutant, the values for the Kd in test [7] and in test [8] were 0.71 µM and 0.82 µM, respectively.
In the case of “human NKT TCR (NKT15) Asn53β to Ala mutant”, the Kd in test [7] is 0.73 µM; in test [8], 1.19 µM.
In turn, “human NKT TCR (NKT15) Arg103α to Ala mutant” showed a Kd in test [8] of 2.56 µM.
In the case of human NKT TCR (NKT15) Pro28αAla mutant, the Kd in test [7] came out at 5.44 µM; in test [8] it was 4.75 µM.
With human NKT TCR (NKT15) Gly96αAla mutant, the Kd was determined as 1.07 µM in test [7] and 1.19 µM in test [8].
